# Assay results: patent US20080207501A1
# T1: amylin receptor (nucleus accumbens membranes prepared from rat brain) (rat), P32214
# T1 chain 1: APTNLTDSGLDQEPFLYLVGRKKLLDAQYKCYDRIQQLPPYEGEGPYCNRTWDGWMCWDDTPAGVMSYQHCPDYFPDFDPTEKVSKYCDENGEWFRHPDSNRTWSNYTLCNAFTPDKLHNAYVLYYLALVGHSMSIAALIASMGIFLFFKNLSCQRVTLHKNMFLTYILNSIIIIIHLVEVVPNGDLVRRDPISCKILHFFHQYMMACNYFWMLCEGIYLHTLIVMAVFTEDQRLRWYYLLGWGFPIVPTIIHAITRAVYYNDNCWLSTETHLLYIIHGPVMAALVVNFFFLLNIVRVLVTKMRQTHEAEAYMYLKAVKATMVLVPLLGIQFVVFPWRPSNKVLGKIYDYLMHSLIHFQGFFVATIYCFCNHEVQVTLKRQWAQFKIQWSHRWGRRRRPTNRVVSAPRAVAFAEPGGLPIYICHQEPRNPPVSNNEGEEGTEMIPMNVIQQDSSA
# T1 chain 2: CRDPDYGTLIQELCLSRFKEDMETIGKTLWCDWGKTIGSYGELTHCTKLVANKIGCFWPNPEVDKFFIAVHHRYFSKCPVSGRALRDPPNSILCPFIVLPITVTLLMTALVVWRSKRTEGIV
# Target: T1, amylin receptor (nucleus accumbens …)
# Assay: radioligand displacement, 125I-rat amylin, rat nucleus accumbens membranes
binder,measurement,value
CGNLSTCMLGTYTQDFNKFHTFPQTAIGVGAP (modifications not checked) [r/h Calcitonin],IC50,100 nM
